Data as given in patent publication US11857648B2, “Dimerization strategies and compounds for molecular imaging and/or radioimmunotherapy” (UNIVERSITY OF PITTSBURGH—OF THE COMMONWEALTH SYSTEM OF …, priority 2016, dated 2024).

How the values were obtained:
[1] = system: luciferase-transfected KPCP cancer cells; assay: PET/CT imaging, orthotopic xenograft mouse model; assay type: in vivo, Balb/c mice; conditions: 1 hour post injection
Method: (§1) In vivo PET/CT imaging was conducted in Balb/c mice. One week after the orthotropic implantation of 1×10^6 luciferase-transfected KPCP cancer cells into the pancreas of Balb/c mice, the mice were used for PET imaging. Either the CNGRC-(^68Ga)NOTA-RGDyK heterodimer (“CNGRC” disclosed as SEQ ID NO: 1), (^68Ga)NOTA(CNGRC) (“CNGRC” disclosed as SEQ ID NO: 1), or (^68Ga)NOTA(RGDyK)] were injected into the bloodstream via tail vein injection. Blocking studies were conducted for the heterodimer studies by co-injecting 100× of CNGRC (SEQ ID NO: 1) and RGDyK. Small animal PET/CT was performed at 1 hour post injection of tracers (FIGS. 15A-15C).

[2] = PET/CT imaging, orthotopic xenograft mouse model; assay type: in vivo, Balb/c mice; conditions: Balb/c, mouse, iv, total radioactivity, 1 hour post injection
Method: as §1

[3] = system: bxpc3 and 4T1 tumor xenografts; assay: PET/CT imaging, subcutaneous xenograft mouse model; assay type: in vivo, NCr nude mice; conditions: 1 hour post injection
Method: In vivo PET/CT imaging was conducted in NCr nude mice bearing bxpc3 (human pancreatic adenocarcinoma cell line) and 4T1 (a murine breast cancer cell line that overexpresses integrin αvβ3 and CD13) tumor xenografts.
Mice were injected with bxpc3 cells (1 million cells in 150 μL PBS) into the subcutaneous flank of the right shoulder and 4T1 cells (1 million cells in 150 μL PBS) into the subcutaneous flank of the left shoulder.

[4] = system: KCH (Pdx1-Cre;K-RasG12D/+; HMGB1−/−) mouse model; assay: PET/CT imaging, spontaneous transgenic mouse model
Method: (§2) In vivo PET/CT imaging was conducted in the genetically engineered KCH (Pdx1-Cre;K-RasG12D/+; HMGB1−/−) mouse model. High mobility group box 1 (HMGB1) is a critical regulator of autophagy, a major pathway for degradation of effete proteins and damaged organelles, and the conditional genetic ablation of HMGB1 limited to the pancreas inhibits autophagy, promotes proliferation, activates normally quiescent pathways, and renders mice extraordinarily sensitive to K-RasG12D/+-driven pancreatic carcinogenesis. The progression of PanINs from low grade PanINI to high grade PanIN3 could be observed as early as seven days (normally three-nine months) after birth in KCH (Pdx1-Cre;K-RasG12D/+;HMGB1−/−). PET imaging normally was performed˜6 weeks old KCH mice.
(§3) Either the CNGRC-(^68Ga)NOTA-RGDyK (“CNGRC” disclosed as SEQ ID NO: 1) heterodimer, (^68Ga)NOTA(CNGRC) (“CNGRC” disclosed as SEQ ID NO: 1), or (^68Ga)NOTA(RGDyK)] were injected into the bloodstream via tail vein injection. Blocking studies were conducted for the heterodimer studies by co-injecting 100× of CNGRC (SEQ ID NO: 1) and RGDyK. Small animal PET/CT was performed at 1 hour post injection of tracers (FIGS. 16A-16D).

[5] = PET/CT imaging, spontaneous transgenic mouse model; conditions: KCH (Pdx1-Cre;K-RasG12D/+; HMGB1−/−), mouse, in vivo, iv, total radioactivity, 1 hour post injection
Method: as §2, §3

## N=C(N)NCCC[C@@H]1NC(=O)CNC(=O)[C@H](CC(N)=O)NC(=O)[C@@H](NC(=O)CCOCCOCCOCCOCCNC(=O)C(CCn2nnc3c2CCC2C(CC3)C2COC(=O)NCCOCCOCCOCCOCCC(=O)NCCCC[C@@H]2NC(=O)[C@@H](Cc3ccc(O)cc3)NC(=O)[C@H](CC(=O)O)NC(=O)CNC(=O)[C@H](CCCNC(=N)N)NC2=O)N2CCN(CC(=O)O)CCN(CC(=O)O)CC2)CSSC[C@@H](C(N)=O)NC1=O (some centres unmarked) [CNGRC-(^68Ga)NOTA-RGDyK, metal not drawn]
[1]
  in vivo performance: longer blood retention, better tumor/non-tumor ratios
  uptake in orthotopic tumor: 1.4 % ID/g
[2]; blood, read-out: uptake in blood
  tissue uptake at 1 h: 0.1 %ID/g
[2]; kidney, read-out: uptake in kidney
  tissue uptake at 1 h: 2.2 %ID/g
[2]; liver, read-out: uptake in liver
  tissue uptake at 1 h: 1.8 %ID/g
[2]; muscle, read-out: uptake in muscle
  tissue uptake at 1 h: 0.1 %ID/g
[2]; pancreas, read-out: uptake in pancrease
  tissue uptake at 1 h: 0.36 %ID/g
[2]; spleen, read-out: uptake in spleen
  tissue uptake at 1 h: 1.1 %ID/g
[3]
  in vivo performance: longer blood retention, better tumor/non-tumor ratios
[4]; 1 hour post injection
  in vivo performance: longer blood retention, better tumor/non-tumor ratios
  uptake in malignant pancreas: 5.9 % ID/g
[4]; PET imaging
  specific tumor uptake: showed specific tumor uptake
[5]; uptake in blood
  tissue uptake at 1 h: 0.23 %ID/g
[5]; uptake in kidney
  tissue uptake at 1 h: 5 %ID/g
[5]; uptake in liver
  tissue uptake at 1 h: 4.7 %ID/g
[5]; uptake in muscle
  tissue uptake at 1 h: 0.38 %ID/g
[5]; uptake in spleen
  tissue uptake at 1 h: 3.1 %ID/g
